Reference: publication PMC12065913

Columns and labels:
[1] = target: AceE fragment 5, stalled nascent chain (E. coli); experiment: optical tweezers with two-color confocal single-molecule fluorescence; single stalled ribosome-nascent chain complexes tethered between beads by DNA handles; 100 nM labelled TF and 100 nM labelled DnaK in solution, with or without 17 nM DnaJ and 10 nM GrpE; TICO buffer, 1 mM ATP and regeneration system
[2] = target: AceE fragment 2, stalled nascent chain (E. coli) (UniProt P0AFG8); experiment: as above
Sequence of UniProt P0AFG8 (P0AFG8 1-200): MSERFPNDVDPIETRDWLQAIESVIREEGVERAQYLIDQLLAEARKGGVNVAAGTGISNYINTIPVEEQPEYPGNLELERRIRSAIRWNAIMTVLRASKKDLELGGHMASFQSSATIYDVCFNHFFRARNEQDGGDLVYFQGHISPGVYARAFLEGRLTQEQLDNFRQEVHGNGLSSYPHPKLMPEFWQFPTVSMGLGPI

With “DnaK-290C, ATTO532 labelled (from UniProt P0A6Y8 1-638) (natural protein)” the residence time (nascent chains folded by more than one-third) [1] was > 10 s and the residence time (nascent chains less than one-third folded) [1] was < 5 s.
“TF-99C, ATTO647N labelled (from UniProt P0A850 1-432) (natural protein)” was tested, and the binding time (more folded nascent chains) [2] was > 50 s.
